From publication PMC2925389

Legend:
[1] = target: T1, yPolη truncated (catalytic core) (Saccharomyces cerevisiae, UniProt Q04049 1-513); assay: EMSA; koff 0.008 ± 0.001 s-1 (DNA trap); 23°C, buffer A (composition not in material; without BSA for fluorescence); EMSA 10 nM DNA, 10-450 nM protein, 20 min, 4.5% native gel, 40 mM Tris in running bu
T1 sequence: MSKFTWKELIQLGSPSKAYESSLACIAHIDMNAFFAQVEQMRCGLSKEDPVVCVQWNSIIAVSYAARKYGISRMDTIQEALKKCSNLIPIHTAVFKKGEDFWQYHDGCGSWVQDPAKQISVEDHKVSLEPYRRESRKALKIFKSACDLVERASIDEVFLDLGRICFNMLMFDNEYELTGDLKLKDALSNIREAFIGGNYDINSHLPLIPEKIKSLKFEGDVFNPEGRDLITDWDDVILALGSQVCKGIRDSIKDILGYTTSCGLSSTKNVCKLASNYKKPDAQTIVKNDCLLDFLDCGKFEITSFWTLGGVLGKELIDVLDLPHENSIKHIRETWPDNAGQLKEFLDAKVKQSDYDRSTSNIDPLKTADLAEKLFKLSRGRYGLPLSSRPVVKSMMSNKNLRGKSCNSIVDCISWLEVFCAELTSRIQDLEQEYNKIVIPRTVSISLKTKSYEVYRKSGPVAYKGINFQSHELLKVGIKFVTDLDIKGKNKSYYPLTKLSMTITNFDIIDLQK

yPolη full-length = target: T2, yPolη full-length (Saccharomyces cerevisiae, UniProt Q04049 1-632); assay: EMSA; koff 0.0041 ± 0.0008 s-1 (DNA trap); 23°C, buffer A (composition not in material; without BSA for fluorescence); EMSA 10 nM DNA, 10-450 nM protein, 20 min, 4.5% native gel, 40 mM Tris in running bu
T2 sequence: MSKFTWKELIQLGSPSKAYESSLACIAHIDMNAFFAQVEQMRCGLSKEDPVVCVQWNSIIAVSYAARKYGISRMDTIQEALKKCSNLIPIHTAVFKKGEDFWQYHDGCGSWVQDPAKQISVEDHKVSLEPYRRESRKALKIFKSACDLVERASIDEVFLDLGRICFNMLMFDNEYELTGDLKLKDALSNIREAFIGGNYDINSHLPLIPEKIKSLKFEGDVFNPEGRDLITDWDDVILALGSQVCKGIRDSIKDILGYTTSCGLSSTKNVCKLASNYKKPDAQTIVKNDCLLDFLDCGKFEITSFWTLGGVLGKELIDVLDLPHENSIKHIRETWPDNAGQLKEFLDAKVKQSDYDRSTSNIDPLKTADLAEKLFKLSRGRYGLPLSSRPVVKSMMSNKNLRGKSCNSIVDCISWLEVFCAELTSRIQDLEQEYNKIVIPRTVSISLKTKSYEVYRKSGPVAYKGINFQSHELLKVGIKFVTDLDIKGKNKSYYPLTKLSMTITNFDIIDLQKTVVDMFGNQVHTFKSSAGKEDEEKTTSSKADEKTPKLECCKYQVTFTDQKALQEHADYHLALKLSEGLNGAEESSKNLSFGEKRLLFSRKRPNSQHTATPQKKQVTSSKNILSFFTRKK

B1: D-1 21/41-mer (dsDNA)
DNA 1: CGCAGCCGTCCAACCAACTCA
DNA 2: GGACGGCATTGGATCGACGATGAGTTGGTTGGACGGCTGCG
In the case of B1, the Kd [1] is reported as 34 ± 3 nM and the Kd (yPolη full-length) is reported as 16 ± 1 nM.
